From paper PMC10221750 come the findings set out here.

Test [1] has as its target BG505 SOSIP.664 trimer (HIV-1 isolate BG505 (Clade A)). Nature of the test: SPR.
Test [2] has the same target.

For orientation: Kd means the equilibrium constant for the complex coming apart. A higher Kd goes with a looser complex. Usually koff stands for the rate constant with which the complex falls apart. What is called kon is the second-order rate constant of association. Read a high kon as faster complex formation.

In test [1], PGT151 Fab came in with a KD1 (site 1, heterogeneous-ligand model) of under 0.1 nM; a KD2 (site 2, heterogeneous-ligand model) of 27 nM; a dissociation constant Kd of 2 nM; a Sm1 (stoichiometry of site 1, heterogeneous-ligand model) (Fab molecules per trimer) of 1.2. In test [1], the Sm1 + Sm2 (cumulative stoichiometry, heterogeneous-ligand model) (Fab molecules per trimer) was found to be 1.9; the Sm2 (stoichiometry of site 2, heterogeneous-ligand model) (Fab molecules per trimer) came to 0.7; the koff was 0.00018 s⁻¹; the koff1 (site 1, heterogeneous-ligand model) is under 1e-05 s⁻¹. Also, in test [1], the koff2 (site 2, heterogeneous-ligand model) was 0.00076 s⁻¹; the on-rate (kon) came out at 87000 M⁻¹ s⁻¹; the kon1 (site 1, heterogeneous-ligand model) was 140000 M⁻¹ s⁻¹; the kon2 (site 2, heterogeneous-ligand model) amounted to 28000 M⁻¹ s⁻¹. The stoichiometry N (Fab molecules per trimer) in test [1] came to 1.9.

Regarding PGT151 IgG (antibody), the neutralization of BG505 pseudovirus in a TZM-bl assay, IC50 in test [2] was found to be 0.043 µg/mL.
